Assays:
[1] = Pharmacokinetic profile in mice after single i.v. bolus; format: in vivo, C57BL/6J mice; settings: single i.v. bolus 4 mg/kg, 21 days
Experimental: Mice were weighed before injection and throughout the experiment to monitor their health. Blood samples taken at 4 and 1, 2, 3, 7, 10, 14, 17 and 21 days post-injection were collected in tubes containing heparin and centrifuged at 3,000 g for 15 min, and the plasma was stored at −20° C. until measurement. Mice were sacrificed 21 days after injection.
The therapeutic antibody was detected using an HRP-conjugated anti-human IgG antibody specific for the Fc fragment, which was then quantified by a colorimetric assay with the OPD substrate and absorbance measure at 450 nm.

[2] = target: T1, b-CI-M6PR (UniProt P08169); assay: Competitive binding of biotinylated CI-M6PR to adsorbed pentamannose 6-phosphate; settings: competitive assay with pentamannose 6-phosphate ligand; read-out: Affinity for b-CI-M6PR (IC50) (converted)
T1 construct: fused on or other part: Chemical biotin label (biotin N-hydroxysuccinimide) for streptavidin-peroxidase detection; no fused protein
Experimental: Briefly, CI-M6PR, purified on a phosphomannane-sepharose affinity column, was biotinylated with biotin N-hydroxysuccinimide. […] The b-CI-M6PR bound to adsorbed PMP was then determined using streptavidin conjugated to the peroxidase and its substrate, o-phenylenediamine dihydrochloride (OPD), by optical density measurements. The 100% value corresponds to the concentration of b-CI-M6PR bound to PMP adsorbed in the absence of a competitor.

Row | Compound | adverse clinical events [1] | IC50 [2]
1 | adalimumab [mAb2, reference compound] | No adverse clinical events | 
2 | O=C[C@@H](O)[C@@H](O)[C@H](O)[C@H](O)COP(=O)(O)O [M6P, mannose 6-phosphate] |  | 20 µM
3 | infliximab [mAb1, reference compound] | No adverse clinical events | 

Source: patent US20250144222A1, “Bifunctional Compounds Targeting the Cation-Independent Mannose 6- Phosphate Receptor” (NANOMEDSYN, priority 2022, published 2025)
